Laboratory results published in the supplement of paper PMC10724198.
± gives the standard deviation of the averaged measurements.

Tested on: Saccharomyces cerevisiae
Assay: protein stability index of tFT-peptide fusion (C-terminal peptide) (PSI (0-1 scale)); higher = more stable (slower turnover)
Conditions: genetic background: wild type; temperature: 30 C
Protocol: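 Multiplexed protein stability (MPS) profiling in S. cerevisiae. Random 12-aa peptides (tFT-X12 library) are fused to the C-terminus of a sfGFP-mCherry tandem fluorescent timer, after mCherry and a GGGS linker. Cells are FACS-sorted into 8 mCherry/sfGFP bins and deep-sequenced. The protein stability index (PSI) is the read-weighted bin average, scaled from 0 (unstable) to 1 (stable). Only peptides with >10 reads are reported; cells were grown at 30 °C in SC-His with glucose.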
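Note: PSI is a weighted mean of sequencing reads over stability bins, variants kept only with over 10 reads, mCherry proximal and sfGFP distal, peptide attached via GGGS linker.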

Sequence	protein stability index
GQCQERRKGGCA	0.577 ± 0.0063
ASSPAPPSPTPP	0.7 ± 0.05
LVAFKGNSMGRE	0.681 ± 0.019
LPPPPPPPPLPH	0.705 ± 0.1
PPPPSLPPPLPF	0.7844 ± 0.0011
PCARLAGSPLPT	0.688 ± 0.021
WVLGGVAPPAVL	0.694 ± 0.048
GAWGFVWLGVGC	0.658 ± 0.031
VCWHSNCVGARH	0.652 ± 0.01
FAVLSFRFPGGL	0.693 ± 0.099
HPPRVLHGVPSG	0.629 ± 0.075
STVLGPPLGLGT	0.69 ± 0.054
VSLGALFEFRAA	0.745 ± 0.015
EVCAGNFVCSLG	0.708 ± 0.015
PSPPLPPRPPTL	0.743 ± 0.013
PFRFSPFPLPLP	0.695 ± 0.023
RGRAGTRGVVEK	0.71 ± 0.024
VTISLGVGGGMQ	0.725 ± 0.048
NRGHWECIRVQR	0.582 ± 0.059
PPPPPRPPLPHL	0.686 ± 0.038
GGWGGVCGACVV	0.702 ± 0.035
LSTPFFFVPLTL	0.621 ± 0.007
AVSHGLFALPFL	0.703 ± 0.012
RRKRQKEGEIRE	0.7362 ± 0.0064
PPLDPPPAPPPP	0.693 ± 0.08

Sequence	protein stability index
LPPSRSLLPPRP	0.6531 ± 0.0059
VGLGAGGTSLMR	0.571
APRPPPCPRPGT	0.7499 ± 0.003
DVLDCTLVEQGA	0.68 ± 0.035
ILFSILHLLSYL	0.6426 ± 0.0039
VVSLPITGTVTL	0.722 ± 0.029
ITEGGANLEGRF	0.661 ± 0.029
GLRQVPGDLAEG	0.699 ± 0.039
GAEQSTDEFIRG	0.7058 ± 0.0012
SRPLQPLHQPKY	0.681 ± 0.052
FFCTHFQLLFSP	0.641 ± 0.019
YKGRYDCRVGGR	0.682 ± 0.0096
SRSETIQTGIGW	0.706 ± 0.012
NEGGGGRGETVE	0.613 ± 0.021
HGVSERPSISEY	0.6797 ± 0.0066
PVFSHTDSRYRP	0.681 ± 0.09
AAWPYKYYLAHI	0.617 ± 0.061
HKKRPKIRSNEY	0.622 ± 0.026
PHPCPTPPPLAP	0.644 ± 0.043
RRVTTSFWPLGS	0.671 ± 0.067
KFKAYNIKKWKE	0.702 ± 0.03
TARPPSPPSTRL	0.732 ± 0.036
GEYEHHKNKKRR	0.7 ± 0.075
MQEMLPSRPIRH	0.69 ± 0.029
KKGRKKEGKREK	0.621 ± 0.06

Sequence	protein stability index
DHGVRASSRATG	0.692 ± 0.015
EALLWWGAWGVV	0.769 ± 0.02
GWLLGVGDEFRR	0.734 ± 0.031
HSALLRSASLSF	0.705 ± 0.022
QNRKELVERPKR	0.702 ± 0.017
GPRVFKPRTTHG	0.663 ± 0.025
GRGKKRKERAER	0.649 ± 0.045
GGVGSMITWRVG	0.689 ± 0.082
GGTKGKAGGEAA	0.672 ± 0.043
HTAYPPPHRTPP	0.629 ± 0.11
KILRKVIKQKGN	0.599 ± 0.041
SAPPLPPPPPPP	0.682 ± 0.016
PLFRHAPPSTLH	0.739 ± 0.014
SFLGLDDEICLR	0.716 ± 0.044
SFVQLNGAVDLA	0.717 ± 0.031
LLSNTINRIWRN	0.658 ± 0.018
GWFFFGCFECGG	0.731 ± 0.024
LLVREVGVERTF	0.7636 ± 0.0024
IHCFSVDLLVAR	0.542 ± 0.018
PAAPFFPSLRLL	0.711 ± 0.03
PPHSHCPSAPHN	0.643 ± 0.082
APPDQPEEGTRA	0.6332 ± 0.0033
PVCDPCSKATLL	0.687 ± 0.015
FVAGFAGGAVGV	0.72 ± 0.0078
FFDKLEIRALVV	0.6302 ± 0.00098

Sequence	protein stability index
FRLPTCLLLFPF	0.594 ± 0.098
DAGLCGCCGVIG	0.666 ± 0.057
PPPPPRHPSSPP	0.71068 ± 0.00014
FFYFSLSLSHFC	0.496 ± 0.025
RGVRLGPSVVVG	0.696 ± 0.051
VCVFFLFGYFRL	0.562 ± 0.22
EEKQLNKIKRKI	0.662 ± 0.059
GAGLWGGRGRRW	0.6489 ± 0.0063
PLPPPLLPRTRL	0.694 ± 0.11
AAVRGAYPDSEG	0.64 ± 0.043
PSLDCMSIEETT	0.679 ± 0.017
VKSTRRHGRPQS	0.723 ± 0.057
LSSCPRIMVPIT	0.777 ± 0.11
FIRDKQTSFDIR	0.68036 ± 0.00024
PPPASPLVPPSP	0.712 ± 0.021
KKNYNTKLTQHP	0.683 ± 0.04
PLSPPLPPAIPS	0.698 ± 0.063
EKCDYVIPVGLL	0.702 ± 0.035
FFERRLGYYSRM	0.85 ± 0.09
WGGVRSGGACCA	0.72 ± 0.075
LPLPPPSPFPPL	0.691 ± 0.015
ASLTNERCGASR	0.679 ± 0.019
TVPFGLPVRPSP	0.7464 ± 0.004
LGTLLWWGAGRG	0.708 ± 0.02
WFVTVISSRFGS	0.6444 ± 0.0011

Sequence	protein stability index
RKYGWSGIGCRA	0.659 ± 0.016
VPSLRSTLPPPL	0.731 ± 0.051
SVARGGGVVEWG	0.705 ± 0.13
PSSLPPLSAPSS	0.6829 ± 0.0035
CLRRRSLSPLFI	0.7252 ± 0.0057
FCGGYHATVKMR	0.68 ± 0.015
VRERGAGAVAGS	0.715 ± 0.044
PTNQHNLEQRPE	0.667 ± 0.05
HLGTLYSSPLYR	0.66289 ± 0.00054
KPKKKRTKQRKR	0.705 ± 0.08
SPASIVPTLELA	0.638 ± 0.024
VLDLVPDFSNGG	0.65 ± 0.036
SGPRVCPGMHWQ	0.651 ± 0.013
GSCVVRKFGKRS	0.681 ± 0.016
SHFPPPSTPPVL	0.713 ± 0.015
GGGAPADSGPGG	0.628 ± 0.036
YCVMEVAGLEWE	0.69 ± 0.038
GETQAAGAKYLG	0.724 ± 0.019
GVVPCVVGFICG	0.687 ± 0.04
DREVGQGRLTEE	0.6359 ± 0.0018
IKTKKKKENKRR	0.723 ± 0.008
VMLGGWRVPGER	0.7754 ± 0.0033
QVAIEKTTHVQE	0.637 ± 0.13
IHPKREPRDNNI	0.679 ± 0.015
VLFLVGLCRDFA	0.553 ± 0.036

Sequence	protein stability index
VGICCCKTYCCS	0.656 ± 0.074
GVPQEGHGLEGY	0.7045 ± 0.00013
LRGVACCSPILG	0.631 ± 0.036
SIMSVLPYCSCS	0.708 ± 0.06
EGIYLTVGTVDQ	0.707 ± 0.049
PLPIPPRRPNSP	0.65 ± 0.091
GSSGQPDSPPIS	0.684 ± 0.015
LYRFVSVLSDVH	0.577 ± 0.012
PSPSLPGRSASP	0.727 ± 0.0081
LTARPPTLSSPL	0.6729 ± 0.0043
LCSGRGGRVCGG	0.669 ± 0.038
PSPPPPGPPLAL	0.632 ± 0.033
LYKYPKRCVDIG	0.676 ± 0.057
LLHMSRLWYTTF	0.595 ± 0.022
GACIRLLPSFGY	0.6434 ± 0.0041
EAKKKRIDKKYE	0.776 ± 0.068
LVLSGFSLFPVP	0.705 ± 0.034
HRVPRLRGQNPP	0.635 ± 0.0073
FTKAVQVFLASV	0.635 ± 0.057
AGGGLGAEGCGG	0.788 ± 0.038
FQGALFTEVVES	0.716 ± 0.043
ALFLFGSDRFFV	0.747 ± 0.026
PVWVDRGVLWSV	0.716 ± 0.094
VQYITSGASRWG	0.6309 ± 0.00084
VSFPHSRLSLTI	0.747 ± 0.02

Sequence	protein stability index
EVRGKSVTIFVR	0.57 ± 0.025
PRGSSRSTFFLF	0.603 ± 0.046
KKRQKKKKLIPQ	0.697 ± 0.024
EDACARFVRLFL	0.678 ± 0.051
GALANPLGHSHL	0.792 ± 0.11
IRVADLNSSSFC	0.888 ± 0.16
KMCISLGTVLAV	0.5504 ± 0.0055
RPPVGTPPLPHS	0.66 ± 0.0091
PPFSHLPYLLPP	0.685 ± 0.015
GKRGKKVKKKSK	0.621 ± 0.016
LRVVWNLSSRAI	0.636 ± 0.059
TPPSPHPCPSPL	0.797 ± 0.064
AWGELGSGVFGL	0.681 ± 0.032
SAIGVGGVGTGG	0.633 ± 0.039
DTGLGSVVFVVF	0.688 ± 0.036
PVPLVLSFLCDL	0.686 ± 0.03
KTAKSEEPILYR	0.753 ± 0.0083
FCYWCLGWGVGL	0.692 ± 0.059
TPMPSCNHRPED	0.655 ± 0.03
PPLFPYRPPQPT	0.697 ± 0.099
GGGAGVRKWRKG	0.703 ± 0.058
RNRKQEKKENKN	0.695 ± 0.022
GHFWVFGIPFFR	0.6547 ± 0.0017
RVSIDIMNALGR	0.627 ± 0.033
CLLPFCFLSHIF	0.585 ± 0.04

Sequence	protein stability index
HMLRLIDFQSIV	0.685 ± 0.042
SIIYKRKKGRRW	0.714 ± 0.039
KLNKKKKITIRI	0.589 ± 0.025
NSRMSRYTTPYG	0.68054 ± 0.00052
PPPLFPALHHPP	0.639 ± 0.051
FPAYPLPPPAPN	0.697 ± 0.067
RGGGPTGARPAM	0.711 ± 0.1
ELCPFLPLFLTY	0.551 ± 0.03
ALVGMNVQRRRV	0.705 ± 0.018
TDTCLQDCLVFV	0.546 ± 0.039
VAGSGAGREAAY	0.651 ± 0.0067
HALWRASVGQCG	0.693 ± 0.068
LDPHPFRGHACC	0.779 ± 0.3
VSHVRVNESAAN	0.677 ± 0.0078
AQPRGLLVCPFL	0.664 ± 0.044
DPTWIKKRPSIP	0.666 ± 0.044
KRKRQKNIRNER	0.704 ± 0.12
NGILRGATYQDV	0.77 ± 0.067
SSENIQLADQLR	0.702 ± 0.046
PPPVPLPPPRSL	0.736 ± 0.055
MCNLSLSCEGLG	0.665 ± 0.045
